Patent US20190315873A1 (AGOMAB THERAPEUTICS, published 2019)
Residue numbers refer to the chain shown, from its start. Blank lines part the entries; values can stand above or below the molecule they belong to.

Experiments:
mouse MET ECD [1] = target: T1, mouse MET ECD (mouse, UniProt P16056 25-931); assay: ELISA, mouse-format mAb on MET ECD
T1 construct: range 1-931; recombinant ECD; also called mMET; mouse MET extracellular domain
Description: (§1) In order to directly determine whether—and to what extent—the prior art agonistic anti-MET antibodies cross-reacted with mouse MET, and to compare them to our human/mouse equivalent anti-MET antibodies, we performed an ELISA assay. Since all prior art antibodies were obtained or engineered with a mouse IgG/A format, we employed the mouse IgG/A version of 71G3, 71D6 and 71G2. Human or mouse MET ECD was immobilized in solid phase (100 ng/well in a 96-well plate) and exposed to increasing concentrations of antibodies (0-40 nM) in solution. […] Among the antibodies tested, only 71G3, 71D6 and 71G2 bound to both human and mouse MET, and they did so with indistinguishable affinities and capacities.

human MET ECD [2] = target: T2, human MET ECD (human, UniProt P08581 25-932); assay: ELISA, mouse-format mAb on MET ECD
T2 construct: range 1-932; recombinant ECD made by standard protein engineering; also called hMET; human MET extracellular domain
Description: as §1

rat MET ECD (rat) = rat MET ECD (rat) (UniProt P97523); assay: ELISA: MET ECD immobilized (100 ng/well), mAb in human IgG1/lambda format in solution (0-40 nM), HRP anti-human Fc
Sequence of rat MET ECD (rat) (P97523 25-931 limits assumed, form in doubt): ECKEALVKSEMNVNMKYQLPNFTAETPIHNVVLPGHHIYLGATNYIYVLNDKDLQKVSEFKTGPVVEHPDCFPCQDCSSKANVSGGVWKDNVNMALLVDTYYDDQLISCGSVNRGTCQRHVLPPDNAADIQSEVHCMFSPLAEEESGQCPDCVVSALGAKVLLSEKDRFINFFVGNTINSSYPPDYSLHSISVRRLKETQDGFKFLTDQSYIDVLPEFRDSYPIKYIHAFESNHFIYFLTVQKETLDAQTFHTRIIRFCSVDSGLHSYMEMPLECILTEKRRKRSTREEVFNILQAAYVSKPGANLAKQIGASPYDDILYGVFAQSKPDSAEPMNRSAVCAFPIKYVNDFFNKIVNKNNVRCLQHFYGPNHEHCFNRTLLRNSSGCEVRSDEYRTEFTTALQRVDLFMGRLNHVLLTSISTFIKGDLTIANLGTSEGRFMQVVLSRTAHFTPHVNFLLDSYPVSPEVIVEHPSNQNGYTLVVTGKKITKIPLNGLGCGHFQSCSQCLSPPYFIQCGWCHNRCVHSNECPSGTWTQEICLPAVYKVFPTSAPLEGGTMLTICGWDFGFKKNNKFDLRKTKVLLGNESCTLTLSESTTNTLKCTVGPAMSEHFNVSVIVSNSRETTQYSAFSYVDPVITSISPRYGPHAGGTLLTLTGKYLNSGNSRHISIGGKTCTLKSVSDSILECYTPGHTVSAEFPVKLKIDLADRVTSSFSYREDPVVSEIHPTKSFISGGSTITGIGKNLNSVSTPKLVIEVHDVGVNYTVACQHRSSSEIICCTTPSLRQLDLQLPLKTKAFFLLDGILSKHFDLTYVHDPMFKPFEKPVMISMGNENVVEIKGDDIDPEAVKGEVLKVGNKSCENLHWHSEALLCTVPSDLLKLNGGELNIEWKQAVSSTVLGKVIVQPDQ

[3] = target: human MET ECD mutant H (mutations 2, 4) (human) (UniProt P08581); assay: ELISA on mutant human MET ECD
[4] = target: human MET ECD mutant D (mutations 1, 2) (human) (UniProt P08581); assay: ELISA on mutant human MET ECD
[5] = target: human MET ECD mutant E (mutations 2, 3, 4) (human) (UniProt P08581); assay: ELISA on mutant human MET ECD
[6] = target: human MET ECD mutant A (mutations 1, 2, 3) (human) (UniProt P08581); assay: ELISA on mutant human MET ECD
monkey MET ECD = target: T3, monkey MET ECD (cynomolgus monkey, UniProt A0A2K5UM36 25-932); assay: ELISA: MET ECD immobilized (100 ng/well), mAb in human IgG1/lambda format in solution (0-40 nM), HRP anti-human Fc
T3 construct: also called simian MET; cynomolgus monkey MET
T3 sequence (A0A2K5UM36 entry or part of it limits assumed): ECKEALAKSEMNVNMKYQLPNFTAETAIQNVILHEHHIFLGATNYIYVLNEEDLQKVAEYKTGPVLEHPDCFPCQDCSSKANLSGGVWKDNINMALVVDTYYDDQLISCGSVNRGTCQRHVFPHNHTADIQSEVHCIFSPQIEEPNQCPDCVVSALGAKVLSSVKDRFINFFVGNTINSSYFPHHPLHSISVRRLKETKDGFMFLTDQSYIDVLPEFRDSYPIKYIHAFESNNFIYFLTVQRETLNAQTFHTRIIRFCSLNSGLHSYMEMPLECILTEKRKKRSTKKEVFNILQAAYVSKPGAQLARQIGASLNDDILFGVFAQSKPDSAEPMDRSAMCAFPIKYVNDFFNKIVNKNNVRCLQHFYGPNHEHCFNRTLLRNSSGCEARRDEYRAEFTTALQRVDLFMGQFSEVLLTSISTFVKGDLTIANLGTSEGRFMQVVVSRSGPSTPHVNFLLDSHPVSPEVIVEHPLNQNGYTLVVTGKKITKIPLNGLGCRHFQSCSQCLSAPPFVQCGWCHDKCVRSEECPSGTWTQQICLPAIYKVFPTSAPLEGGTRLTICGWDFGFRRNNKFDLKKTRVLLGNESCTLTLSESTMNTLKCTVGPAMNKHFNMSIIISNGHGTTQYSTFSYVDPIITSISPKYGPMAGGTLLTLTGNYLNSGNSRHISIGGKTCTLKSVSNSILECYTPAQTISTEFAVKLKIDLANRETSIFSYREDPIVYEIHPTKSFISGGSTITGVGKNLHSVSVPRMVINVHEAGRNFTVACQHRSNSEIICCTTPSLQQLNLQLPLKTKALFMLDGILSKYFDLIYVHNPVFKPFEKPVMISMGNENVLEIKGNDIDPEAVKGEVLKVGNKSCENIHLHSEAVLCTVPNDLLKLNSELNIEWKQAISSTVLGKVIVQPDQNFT
Text: (§2) To this end, we investigated whether our human/mouse equivalent anti-MET antibodies cross-reacted with MET from other species, including rat (Rattus norvegicus) and cynomolgus monkey (Macaca fascicularis). […] Human and mouse MET ECD were used as controls. A restricted panel of antibodies representative of both SEMA binders (71D6, 71C3, 71D4, 71A3, 71G2) and PSI binders (76H10, 71G3) was selected. The 5D5 prior art antibody was used as control. MET ECD proteins were immobilized in solid phase (100 ng/well in a 96-well plate) and exposed to increasing concentrations (0-40 nM) of antibodies (with human constant regions) in solution. […] We conclude that the 71D6, 71C3, 71D4, 71A3, 71G2, 76H10 and 71G3 antibodies bind with similar affinity and capacity to human MET, mouse MET, rat MET and simian MET, at least as determined by ELISA.

mouse MET ECD [7] = target: T1, mouse MET ECD; assay: as above
Text: as §2
Target sequence in this assay (P16056 25-931 limits assumed, form in doubt): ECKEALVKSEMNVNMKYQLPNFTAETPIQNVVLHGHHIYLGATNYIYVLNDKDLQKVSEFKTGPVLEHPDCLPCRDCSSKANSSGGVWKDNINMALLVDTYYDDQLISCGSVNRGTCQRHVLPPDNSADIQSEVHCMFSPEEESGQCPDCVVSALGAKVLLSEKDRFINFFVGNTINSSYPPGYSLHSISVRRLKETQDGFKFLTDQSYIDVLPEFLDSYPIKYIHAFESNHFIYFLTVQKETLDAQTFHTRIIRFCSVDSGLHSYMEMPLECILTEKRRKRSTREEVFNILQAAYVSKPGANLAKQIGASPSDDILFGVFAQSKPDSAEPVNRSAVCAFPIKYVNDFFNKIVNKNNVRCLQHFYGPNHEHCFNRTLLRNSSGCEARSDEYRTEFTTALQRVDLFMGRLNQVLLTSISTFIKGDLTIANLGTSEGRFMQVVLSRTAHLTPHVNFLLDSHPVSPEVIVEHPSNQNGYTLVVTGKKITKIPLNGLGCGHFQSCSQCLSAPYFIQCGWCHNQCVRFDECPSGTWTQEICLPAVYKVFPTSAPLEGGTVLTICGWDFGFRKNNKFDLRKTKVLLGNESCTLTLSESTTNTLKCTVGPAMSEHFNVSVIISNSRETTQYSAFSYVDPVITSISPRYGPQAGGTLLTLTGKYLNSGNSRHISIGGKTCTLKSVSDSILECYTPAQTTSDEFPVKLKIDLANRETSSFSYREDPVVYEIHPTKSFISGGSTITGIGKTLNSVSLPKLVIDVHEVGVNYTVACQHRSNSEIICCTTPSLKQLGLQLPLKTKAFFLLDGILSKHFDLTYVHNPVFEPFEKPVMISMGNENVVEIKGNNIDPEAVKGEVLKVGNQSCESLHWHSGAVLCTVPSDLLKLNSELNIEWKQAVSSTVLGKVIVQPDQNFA

human MET ECD [8] = target: T2, human MET ECD; assay: as above
Text: as §2

Molecule: 5D5 anti-human MET antibody, mouse IgG1/lambda format
EC50 (mouse MET ECD [1]): > 40 nM | EC50 (human MET ECD [2]): 0.197 nM | EMAX (human MET ECD [2]): 3.16 OD450

B1: 71C3 llama-human chimeric mAb (human IgG1/lambda) (antibody, V domains shown)
VH: QLQLVESGGGLVQPGGSLRLSCAASGFTFSSHAMSWVRQAPGKGLEWVSAINSGGGSTSYADSVKGRFTISRDNAKNTLYLQMNSLKPEDTAVYYCAKELRFDLARYTDYEAWDYWGQGTQVTVSS
VL: SYELTQPSALSVTLGQTAKITCQGGSLGSSYAHWYQQKPGQAPVLVIYDDDSRPSGIPERFSGSSSGGTATLTISGAQAEDEGDYYCQSADSSGNAAVFGGGTHLTVLQ
EC50 (read off the curve) (rat MET ECD (rat)): 0.3 nM | % binding (EMAX) vs WT MET ECD [3]: 61.6% | % binding (EMAX) vs WT MET ECD [4]: 102% | % binding (EMAX) vs WT MET ECD [5]: 59.6% | % binding (EMAX) vs WT MET ECD [6]: 99.8% | EC50 (read off the curve) (monkey MET ECD): ~0.1 nM | EC50 (read off the curve) (mouse MET ECD [7]): ~0.1 nM | EC50 (read off the curve) (human MET ECD [8]): ~0.1 nM

B2: 71A3 llama-human chimeric mAb (human IgG1/lambda) (antibody, V domains shown)
VH: EVQLVESGGGLVQPGGSLRLSCAASGFSFKDYDITWVRQAPGKGLEWVSTITSRSGSTSYVDSVKGRFTISGDNAKNTLYLQMNSLKPEDTAVYYCAKVYATTWDVGPLGYGMDYWGKGTLVTVSS
VL: B1 VL
EC50 (read off the curve) (rat MET ECD (rat)): 0.1 nM | % binding (EMAX) vs WT MET ECD [3]: 76.7% | % binding (EMAX) vs WT MET ECD [4]: 128% | % binding (EMAX) vs WT MET ECD [5]: 65.4% | % binding (EMAX) vs WT MET ECD [6]: 117% | EC50 (read off the curve) (monkey MET ECD): ~0.1 nM | EC50 (read off the curve) (mouse MET ECD [7]): ~0.07 nM | EC50 (read off the curve) (human MET ECD [8]): ~0.09 nM

B3: 71D4 llama-human chimeric mAb (human IgG1/lambda) (antibody, V domains shown)
VH: B1 VH with Q1E, S31G, H32Y, A33G, A50D, E99D, L100M, F102L, D103Y, T108N
VL: B1 VL with Y2S, E3A
EC50 (read off the curve) (rat MET ECD (rat)): 0.2 nM | % binding (EMAX) vs WT MET ECD [3]: 58.7% | % binding (EMAX) vs WT MET ECD [4]: 120% | % binding (EMAX) vs WT MET ECD [5]: 57.2% | % binding (EMAX) vs WT MET ECD [6]: 114% | EC50 (read off the curve) (monkey MET ECD): ~0.1 nM | EC50 (read off the curve) (mouse MET ECD [7]): ~0.2 nM | EC50 (read off the curve) (human MET ECD [8]): ~0.2 nM

Further lines, results first:

EC50 (read off the curve) (rat MET ECD (rat)): 0.1 nM | % binding (EMAX) vs WT MET ECD [3]: 38.6% | % binding (EMAX) vs WT MET ECD [4]: 128% | % binding (EMAX) vs WT MET ECD [5]: 43.6% | % binding (EMAX) vs WT MET ECD [6]: 103% | EC50 (read off the curve) (monkey MET ECD): ~0.1 nM | EC50 (read off the curve) (mouse MET ECD [7]): ~0.1 nM | EC50 (read off the curve) (human MET ECD [8]): ~0.1 nM
B4: 71D6 llama-human chimeric mAb (human IgG1/lambda) (antibody)
heavy: ELQLVESGGGLVQPGGSLRLSCAASGFTFSSYGMSWVRQAPGKGLEWVSAINSYGGSTSYADSVKGRFTISRDNAKNTLYLQMNSLKPEDTAVYYCAKEVRADLSRYNDYESYDYWGQGTQVTVSSASTKGPSVFPLAPSSKSTSGGTAALGCLVKDYFPEPVTVSWNSGALTSGVHTFPAVLQSSGLYSLSSVVTVPSSSLGTQTYICNVNHKPSNTKVDKKVEPKSCDKTHTCPPCPAPELLGGPSVFLFPPKPKDTLMISRTPEVTCVVVDVSHEDPEVKFNWYVDGVEVHNAKTKPREEQYNSTYRVVSVLTVLHQDWLNGKEYKCKVSNKALPAPIEKTISKAKGQPREPQVYTLPPSRDELTKNQVSLTCLVKGFYPSDIAVEWESNGQPENNYKTTPPVLDSDGSFFLYSKLTVDKSRWQQGNVFSCSVMHEALHNHYTSEVFVPQSRKVI
light: QPVLNQPSALSVTLGQTAKITCQGGSLGARYAHWYQQKPGQAPVLVIYDDDSRPSGIPERFSGSSSGGTATLTISGAQAEDEGDYYCQSADSSGSVFGGGTHLTVLQPKAAPSVTLFPPSSEELQANKATLVCLISDFYPGAVTVAWKADSSPVKAGVETTTPSKQSNNKYAASSYLSLTPEQWKSHRSYSCQVTHEGSTVEKTVAPTECS

EC50 (mouse MET ECD [1]): > 40 nM | EC50 (human MET ECD [2]): 0.067 nM | EMAX (human MET ECD [2]): 3.06 OD450
B5: DN-30 mouse anti-human MET antibody (antibody, from another filing, V domains shown)
VH: QVQLQQPGTELVKPGASVKLSCKASGYTFTSYWIHWVKQRPGQGLEWIGEINPSSGRTNYNEKFKNKVTVTVDKSSTTAYMQLSNLTSEDSAVYYCASRGYWGQGTTLTVSS
VL: DIVLTQSPASLAVSLGQRATISCKASQSVDYDGGSYMSWFQQRPGQPPKLLISAASNLESGIPARFSGSGSGTDFTLNIHPVEEEDVATYYCQQSYEDPLTFGAGTKLELKR
